Data on 15 molecules can be found in US20210388081A1 (Memorial Sloan Kettering, published 2021).

Substitutions are numbered along the chain they refer to.

For experiment [1], the target named is T1, FcRL1, overexpressed on 3T3 cells (UniProt Q96LA6 17-429, limits assumed).
T1 construct: whole, on cells
T1 sequence (looked up): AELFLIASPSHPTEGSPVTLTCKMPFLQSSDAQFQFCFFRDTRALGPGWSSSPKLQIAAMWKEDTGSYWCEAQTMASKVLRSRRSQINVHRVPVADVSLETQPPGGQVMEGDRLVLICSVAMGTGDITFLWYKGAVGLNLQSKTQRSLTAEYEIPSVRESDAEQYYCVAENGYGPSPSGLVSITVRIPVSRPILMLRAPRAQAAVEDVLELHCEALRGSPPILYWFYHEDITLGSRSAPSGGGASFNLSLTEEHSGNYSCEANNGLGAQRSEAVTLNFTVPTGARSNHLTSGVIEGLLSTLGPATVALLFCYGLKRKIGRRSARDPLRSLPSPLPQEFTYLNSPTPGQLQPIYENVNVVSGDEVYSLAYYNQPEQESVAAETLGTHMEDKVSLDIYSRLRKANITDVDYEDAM
The experiment in a line: phage clone on 3T3-FcRL1 cells.

For experiment [2], the target named is T2, FcRL4, overexpressed on 3T3 cells (UniProt Q96PJ5 20-515, limits assumed).
T2 construct: whole, on cells
T2 sequence (looked up): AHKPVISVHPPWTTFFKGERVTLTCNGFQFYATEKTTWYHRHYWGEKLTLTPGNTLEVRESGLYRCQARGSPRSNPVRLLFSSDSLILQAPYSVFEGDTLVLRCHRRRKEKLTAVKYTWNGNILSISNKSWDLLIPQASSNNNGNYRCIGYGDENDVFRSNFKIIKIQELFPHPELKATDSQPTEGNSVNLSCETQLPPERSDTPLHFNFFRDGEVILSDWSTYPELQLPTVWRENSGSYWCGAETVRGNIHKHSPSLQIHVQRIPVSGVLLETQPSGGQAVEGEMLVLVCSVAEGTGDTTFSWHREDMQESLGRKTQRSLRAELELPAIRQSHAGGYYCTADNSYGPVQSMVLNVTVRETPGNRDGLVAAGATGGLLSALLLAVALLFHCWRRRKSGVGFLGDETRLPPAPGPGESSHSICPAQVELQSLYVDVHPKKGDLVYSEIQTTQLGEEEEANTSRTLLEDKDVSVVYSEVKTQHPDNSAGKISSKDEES
The experiment in a line: phage clone on 3T3-FcRL4 cells.

B1: ET200-021 (scFv)
scFv: QSVLTQPPSVSAAPGQKVTISCSGSNSNIGNNYVSWYQQLPGTAPKLLIYDNNKRPSGIPDRFSGSRSGTSATLGITGLQTGDEADYYCGTWNTTVTPGYVFGTGTKVTVLGSRGGGGSGGGGSGGGGSLEMAEVQLVQSGAEVKKPGASVKVSCKASGYTFTSYGISWVRQAPGQGLEWMGWISAYNGNTNYAQKLQGRVTMTTDTSTSTAYMELRSLRSDDTAMYYCARSVYDLDTWGQGTLVTVSSTSGQAGQHHHHHHGAYPYDVPDYAS
notes: screened as phage clone; entry is VL-linker-VH-His tag-HA tag
On to B1, for which the binding result in experiment [1] and in experiment [2] was “no binding” throughout.

B2: ET200-013 (scFv)
scFv: QSVVTQPPSVSGAPGQRVTISCTGSTSNIGAGYDVHWYQQLPGTAPKLLIYTNNFRPSGVPDRFSASKSGTSASLAITGLQAEDEADYYCGTWDSSLSAVVFGGGTKLTVLGSRGGGGSGGGGSGGGGSLEMAEVQLVESGTEVKKPGASVKVSCKASGYMFTSYGLNWVRQAPGQGLEWMGWISANNGKTNYAKKFQDRVTMTRDTSTSTGYMELRSLRSDDTAVYYCARHIGGSYFDRWGQGTLVTVSSTSGQAGQHHHHHHGAYPYDVPDYAS
notes: as for B1
In the case of B2, the binding result in experiment [1] and in experiment [2] was “no binding” in each case.

B3: ET200-020 (scFv)
scFv: QSVVTQPPSVSAAPGQKVTISCSGSTSNIGNNDVSWYQQLPGTAPKLLIYDNNKRPSGIPDRFSGSKSGTSATLGITGLQTGDEADYYCGTWDSSVSASWVFGRGTKLTVLGSRGGGGSGGGGSGGGGSLEMAQVQLVQSGAEVKKPGASVKVSCKASGYTFTSYGISWVRQAPGQGLEWMGWISAYNGNTNYPQKLQGRVTMTTDPSTSTAYMELRSLRSDDTAVYYCARSMTSFDYWGQGTLVTVSSTSGQAGQHHHHHHGAYPYDVPDYAS
notes: as for B1
For B3, the binding result in experiment [1] and in experiment [2] was “no binding” each time.

B4: ET200-022 (scFv)
scFv: QSVVTQPPSVSAAPGQKVTISCSGSSSNIGNNYVSWYQQLPGTAPKLLIYDNNKRPSGIPDRFSGSKSGTSATLGITGLQTGDEADYYCGTWDSSLGAPYVFGTGTKVTVLGSRGGGGSGGGGSGGGGSLEMAEVQLVQSWGGSEQPGRSLRLSCAASGFTFDDYAMHWVRQAPGKGLEWVSGISWNSGSIGYADSVKGRFTISRDNAKNSLYLQMNSLRAEDTAMYYCARYRQVGSAYDSWGQGTLVTVSSTSGQAGQHHHHHHGAYPYDVPDYAS
notes: as for B1
In the case of B4, the binding result in experiment [1] and in experiment [2] was “no binding” throughout.

B5: ET200-014 (scFv)
scFv: SYVLTQPPSVSVAPGKTARITCGGNNIGSKSVHWYQQKPGQAPVLVIYYDSDRPSGIPERFSGSNSGNTATLTISRVEAGDEADYYCQVWDSSSDHYVFGTGTKVTVLGSRGGGGSGGGGSGGGGSLEMAEVQLVETGGGLVQPGGSLRLSCAASGFTFSSYAMSWVRQAPGKGLEWVSAISGSDGSTYYADSVKGRFTISRDNSKNTLYLQMNSLRDEDTAVYYCARSHEANLVGDWWGQGTLVTVSSTSGQAGQHHHHHHGAYPYDVPDYAS
notes: as for B1
Regarding B5, the binding result in experiment [1] and in experiment [2] was “no binding” in each case.

B6: ET200-011 (scFv)
scFv: QSVVTQPPSVSAAPGQRVTISCSGSSSNISIYDVSWYQQLPGTAPKLLIYGNNKRPSGIADRFSGSTSGTSATLGITGLQTGDEADYYCGTWDDSLSGGVFGGGTKLTVLGSRGGGGSGGGGSGGGGSLEMAQMQLVQSGAEVKKPGSSVKVSCEASGGTLSSYAINWVRQAPGQGLEWMGGIIPMFGTAHYAQKFQGRVTITADESTKTAYMELSSLRSEDTAVYYCARGVHYASFDHWGQGTLVTVSSTSGQAGQHHHHHHGAYPYDVPDYAS
notes: as for B1
Regarding B6, the binding result in experiment [1] and in experiment [2] was “no binding” in each case.

B7: ET200-018 (scFv)
scFv: QAVLTQPPSTSGTPGQRVTISCSGSSSNIGRNGVNWYQQLPGAAPKVLIYNDNQRPSGVPDRVSGSQSGSSGTLAIDGLRSEDEADYYCAAWDDSLHGVVFGGGTKLTVLGSRGGGGSGGGGSGGGGSLEMAQVQLVQSGAEVKKPGASVKVSCKVSGYTLNELSMHWVRQAPGKGLEWMGGFDPEDGETIYAQKFQGRVTMTEDTSTDTAYMELSSLRSEDTAVYYCARGGYGDSWGQGTLVTVSSTSGQAGQHHHHHHGAYPYDVPDYAS
notes: as for B1
Take B7: the binding result in experiment [1] and in experiment [2] was “no binding” in each case.

B8: ET200-012 (scFv)
scFv: QSVLTQPPSVSAAAGQKVTISCSGSDSNIGNNYVSWYQHLPGTAPKLLIYDVKNRPSGIPDRFSGSKSGSSATLGIAGLQPGDEADYYCGTWDSRLDAYVFGTGTKVTVLGSRGGGGSGGGGSGGGGSLEMAQMQLVQSGAEVKKPGASVKVSCKTSGFPFNIFGITWVRQAPGQGLEWMGWISGYNGNTDYPQKFQGRVTMSTDTSTSTAYMELRNLKSDDTAVYYCARGAYGGMDTWGQGTLVTVSSTSGQAGQHHHHHHGAYPYDVPDYAS
notes: as for B1
Turning to B8, the binding result in experiment [1] and in experiment [2] was “no binding” in each case.

B9: ET200-039 (scFv)
scFv: NFMLTQPHSVSESPGKTVTISCTRSSGSIASNYVQWYQQRPGSSPTTVIYEDNQRPSGVPDRFSGSIDSSSNSASLTISGLKTEDEADYYCQSYDSSNWVFGGGTKLTVLGSRGGGGSGGGGSGGGGSLEMAEVQLVQSGAEVKKPGSSVKVSCKASGGTFSSYAISWVRQAPGQGLEWMGGIIPIFGTANYAQKFQGRVTITADESTSTAYMELSSLRSEDTAVYYCARSNYYYNDYWGQGTLVTVSSTSGQAGQHHHHHHGAYPYDVPDYAS
notes: screened as phage clone; entry is VL-linker-VH-His tag-HA tag; also called ET200-39
With B9, the binding result in experiment [1] and in experiment [2] was “no binding” in each case.

B10: ET200-026 (scFv)
scFv: B9 scFv with R24G, S44A, S231N, Y233H
notes: as for B1
For B10, the binding result in experiment [1] and in experiment [2] was “no binding” each time.

B11: ET200-015 (scFv)
scFv: QSVVTQPPSVSVAPGKTARITCGGNNIGSKSVHWYQQKPGQAPVLVIYYDSDRPSGIPERFSGSNSGNTATLTISRVEAGDEADYYCQVWDSSSDVVFGGGTKLTVLGSRGGGGSGGGGSGGGGSLEMAEVQLVQSGAEVKKPGASVKVSCKASGYTFTSYGISWVRQAPGQGLEWMGWISAYNGNTNYAQKLQGRVTMTTDTSTSTAYMELRSLRSDDTAVYYCARWGGFGAVDHWGQGTLVTVSSTSGQAGQHHHHHHGAYPYDVPDYAS
notes: as for B1
In the case of B11, the binding result in experiment [1] and in experiment [2] was “no binding” each time.

B12: ET200-017 (scFv)
scFv: SYVLTQPPSVSVAPGKTARITCGGNNIGSKSVHWYQQKPGQAPVLVVYDDSDRPSGIPERFSGSNSGNTATLSISRVEAGDEADYYCQVWDSSSDHTVFGTGTKVTVLGSRGGGGSGGGGSGGGGSLEMAQVQLQQWGAGLLKPSETLSLTCAVYGGSFSGYYWSWIRQPPGKGLEWIGEINHSGSTNYNPSLKSRVTISVDTSKNQFSLKLSSVTAADTAVYYCARYYPGMDMWGQGTLVTVSSTSGQAGQHHHHHHGAYPYDVPDYAS
notes: as for B1
As to B12, the binding result in experiment [1] and in experiment [2] was “no binding” in each case.

B13: ET200-016 (scFv)
scFv: SSELTQDPAVSVALGQTVKITCQGDSLTDYHATWYQQKPGQAPVAVIYATNNRPTGIPDRFSGSSSGNTASLTITGAQAEDEADYYCNSRDSGTDEVLFGGGTKLTVLGSRGGGGSGGGGSGGGGSLEMAEVQLVETGGGLVKPGGSLRLSCAASGFTFSSYSMNWVRQAPGKGLEWVSSISSSSSYIYYADSVKGRFTISRDNAKNSLYLQMNSLRAEDTAVYYCARGQGYDYWGQGTLVTVSSTSGQAGQHHHHHHGAYPYDVPDYAS
notes: as for B1
In the case of B13, the binding result in experiment [1] and in experiment [2] was “no binding” throughout.

B14: ET200-023 (scFv)
scFv: LPVLTQPPSVSVAPGKTARITCGGNNIGSKSVHWYQQKPGQAPVLVVYADSDRPSGIPERFSGSNSGNTATLTISRVEAGDEADYYCQVWDSSSYHNYVFGTGTKVTVLGSRGGGGSGGGGSGGGGSLEMAEVQLVQSGAEVKKPGASVKVSCKASGYTFTSYGISWVRQAPGQGLEWMGWISAYNGNTNYAQKLQGRVTMTTDTSTSTAYMELSSLRSEDTAMYYCARYWGFGVSDRWGQGTLVTVSSTSGQAGQHHHHHHGAYPYDVPDYAS
notes: as for B1
In the case of B14, the binding result in experiment [1] and in experiment [2] was “no binding” throughout.

B15: ET200-019 (scFv)
scFv: NFMLTQPHSVSESPGKTVTISCTRSSGSIASNYVQWYQQRPGSAPTTVIYEDNQRPSGVPDRFSGSIDSSSNSASLTISGLKTEDEADYYCQSYDSSNSWVFGGGTKLTVLGSRGGGGSGGGGSGGGGSLEMAQVQLVQSGAEVKRPGSSVKVSCTASGGTFSSDAISWVRQAPGQGLEWMGGIIPMFGTANYAQKFQGRVTITADESTSTAYMELSSLRSEDTAVYYCAREGYYYPSAYLGSVLNDISSVYDEWGQGTLVTVSSTSGQAGQHHHHHHGAYPYDVPDYAS
notes: as for B1
In the case of B15, the binding result in experiment [1] and in experiment [2] was “no binding” in each case.
